Target: the molecule itself
Assay: cross-linking; 3 µg synthetic MTALTND4 in 20 µl PBS 1x with 0%, 0.5% or 1% paraformaldehyde, 30 °C, 10 min; tricine-SDS-PAGE, Coomassie stain

B1: MTALTND4 (mitochondrial alternative ND4 protein), complete synthetic peptide (peptide)
chain: MRHNYNKLHLPTTNRPKIAHCMLFNQPHSPRSNSHSHPNPLKLHRRSHSHNRPRAYILITILPSKLKLRTHSQSHHNPLSRTSNSTPTNSFLMTSSKPR
notes: M.W. 11,532.06 g/mol as printed in the methods; also called MTALND4; synthetic MTALTND4; source: synthetic peptide (LifeTein; purity verified by HPLC by the supplier)
- stoichiometry N: 2

From PMC10193809, “A small protein coded within the mitochondrial canonical gene nd4 regulates mitochondrial bioenergetics” (BMC Biology, 2023)
